Data set [1] has as its target T1, HIV-1 nucleocapsid protein NC (wild type) (HIV-1 pNL4-3, UniProt P12493 378-432). Put plainly: competition.
The target of data set [2] is T1, HIV-1 nucleocapsid protein NC (wild …). Put plainly: SPR. In general terms: SPR reads the build-up and loss of mass on a sensor chip optically.
The target is the same in data set [3]. Put plainly: competition. This is another data set of the same source.
The target is the same in data set [4]. Put plainly: tryptophan fluorescence quenching.
Data set [5] has the same target. Put plainly: tryptophan fluorescence quenching. This is another data set of the same source.

Where two headings read alike, the source gives them in different places.

For orientation: IC50 means the concentration at which inhibition is half-maximal. A higher IC50 goes with weaker potency in that assay. Usually Kd stands for the concentration at which binding is half-saturated. Low values mean a tighter complex, high ones a looser complex.

B1: (TG)10 (ssDNA)
DNA: TGTGTGTGTGTGTGTGTGTG
The molecule B1 had a half-maximal inhibitory concentration (IC50) in data set [1] of 37 ± 2.73 nM.

B2: (A)8 (ssDNA)
DNA: AAAAAAAA
As for B2, the binding result in data set [2] is “no binding”.

B3: (TG)4 (ssDNA)
DNA: TGTGTGTG
Consider B3, for which, in data set [3], the IC50 is 264 ± 101 nM. Also, the results for the Kd in data set [4] and in data set [5] were 4.7 ± 0.67 nM and 3.4 ± 0.07 nM, respectively.

B4: (A)30 (ssDNA)
DNA: AAAAAAAAAAAAAAAAAAAAAAAAAAAAAA
With B4, in data set [1], the concentration for half-maximal inhibition (IC50) is 6680 ± 785 nM.

The values are drawn from publication PMC1351370.
